This data set is described as follows: yeast display, Sf9 membrane polyspecificity reagent, FACS + sequencing; frameworks hold sequencing errors. The method in brief: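 Synthetic nanobody libraries on Saccharomyces cerevisiae BJ5465 were galactose-induced for 36–48 hours, stained 1 hour at 4 °C with 10% biotinylated, detergent-solubilized Sf9 membrane reagent and enriched on streptavidin microbeads. FACS then separated cells into low and high (top ~1%) gates by anti-HA (expression) and streptavidin (reagent binding) fluorescence. Genes were colony-PCR amplified, MiSeq 2 × 250 sequenced and CDR-length filtered. A clone's polyreactivity label is that of its gate of origin.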
With “QVQLVQSGGGLVQAGGSLRLSCAASGSTIAYKAMGWNRQAPGKEREMLAAISWRGGSTYYADSVKGRFTISRDNAKNTVYLQMKSLKPEDTAVYYCAKVYRAYTDVVRYGYWGQGSQVTVSS”, the “polyreactivity (PSR sort gate)” value is given as “high polyreactivity”. Turning to “QVQLVQSGGGLVQAGGSLRLSCAASGYTFYVNTMGWYRKAPGKERELVAVISSGGRTNYADSVKGRFTISRDNAKNTVYLQMNSLKPEDTAVYYCAAIGWRTRYRFEYWGIGTQVTVSS”, the “polyreactivity (PSR sort gate)” value is reported as “high polyreactivity”. In the case of “QVQLVQSGGGLVQAGGSLRLSCADSGRTFTRYTMGWYRQAPGKERELVAAISSGGSTTYADSVKGRFTISRDNAKNTVYLQMNSLKPEDTAVYYCAAGLVYRGYRRDYWGQGTQVTVSS”, the “polyreactivity (PSR sort gate)” value is reported as “low polyreactivity”. Turning to “QVQLVQSGGGLVQAGGSLRLSCAPTGVIFRHNARGWYRQSPGKERELVAAISRSGGNTYYADSVKGRFTISRDNAKQTDYLQRNSLKPEDTAVYYSNKIEYDSWADHVYWGQGTQVTVSS”, the “polyreactivity (PSR sort gate)” value is listed as “low polyreactivity”. “QVQLVQTGGGLVQAGGSLRLSCAGSGSTFTSYVMGWYRQAPGKERELVAAITSSGGDTYYADSVKGRFTISRDNAKNTVYLQMNSVKPEDTAVYYCATRSYYRSSYYRNRYPYDYWGQGTQVTVSS”: the “polyreactivity (PSR sort gate)” value is listed as “low polyreactivity”.

On to “QVQLVSGGGLVHSGGSLRLSCAASGITFESNAMGWYRQGPGKEREFVAAISYDGGDTYYADSVKGRFTISRDNAKNTVYLQMNSLKPDDTSVYYCAAETGWTMDYWGQGTQVTVSS”, for which the “polyreactivity (PSR sort gate)” value is on record as “low polyreactivity”. In the case of “QVQLVSGGGLVQAGGSLRLSCAASGRIFGTYAMGWYRQAPGKERELVAAITSGGSTYYADSVKGRFTISRDNAKNTVYLQMNSLKPEDSAVYYCAAEYAIWTHWGRYVTGNYWGQGTQVTVSS” it was “high polyreactivity”. In the case of “QVQLVVSGGGLDQARGSLSLSCAASGRNFTSYAMGWYRQAPWKERELVAAISWSVGSTYYADSVKGRFTISRDNAKNTVYLQMNSLKPEDTSVYYCNAVYPSVYPVSTRYYWGQGTQVTVSS”, the “polyreactivity (PSR sort gate)” value was “high polyreactivity”. Next, “QVQLVVSGGGLVHAGGSLRLSCAAYGFTVYKNTMGWYRQAPRKERELVAAISSSGSSTYYADTVKGRFTISRDNAKNTVYLQMNSLKPEDTAVYYCAAGRFAYHDDYWGQGTQVTVSS”: “high polyreactivity”. Take “QVQLVVSGGGLVQAGGSLLLSCAASGFTFYSYAMGWYRQAPGKERELVAGISWSGTRTYYADSVKGRFTISRDNAKNTVYLQMISLKPEDTAVYYCAARGYRYGYGYWGQGTQVTVSS”: the “polyreactivity (PSR sort gate)” value is listed as “high polyreactivity”. For the sequence “QVQLVVSGGGLVQAGGSLRLSCAASGGTFGGYAMGWYRQAPGKERELVAVITQRGGSTSYADSVKGRFTISRDNAKNTVYLQLNSQKREDTAVYYCNASAWLVVARTRYGYWGQGTQVTVSS”, the “polyreactivity (PSR sort gate)” value is recorded as “low polyreactivity”. Consider “QVQLVVSGGGLVQAGGSLRLSCAASGITFYYNAMGWYRQAPGKEGEVVAAITRRGGSTYYADSVKGRFTISRDNAKNTVYLQMNSLIPEDTAVYYCAKYIYGYKDSPLGDDYWGQGTQVTVSS”, for which the “polyreactivity (PSR sort gate)” value is listed as “high polyreactivity”. For the sequence “QVQLVVSGGGLVQAGGSLRLSCAASGRTFRSNAMGWYRQAPGKERELVAAISRTGRTNYADSVKGRFTISRDTAKNTVYLQMNSLKPEDTAVYYCAARGYSVPRQERYDYWGQGTQVTVSS”, the “polyreactivity (PSR sort gate)” value is “high polyreactivity”.

For “QVQLVVSGGGLVQAGGSLRLSCAASGRTFSIYAMGWYRQAPWKERELVAAISWSGGRTYYADSVKGRFTISRDNAKNTVYLLMNSLKPEDTAVYYCNKDWIYRGYDYWGQGTQVTVSS”, the “polyreactivity (PSR sort gate)” value is reported as “high polyreactivity”. In the case of “QVQLVVSGGGLVQAGGSLRLSCAASGSIFKKYAMGWYRQAPGKERELVAAITRGTYYADSVKGRFTISRDNAKNTVYLLMNSLNPEDTAVYYCNREYWVRGYYRVRGEYDYWGQGTQVTVSS”, the “polyreactivity (PSR sort gate)” value is on record as “low polyreactivity”.

On to “QVQPQESGGGLVQAGGSLRLSCAASGTIFAFQTMGWYRQAPGKERELVASITYGSSTNYADSVKGRFTFSRDNANITVYVQMNSLKPEDTAVYYCAVPQAQYYYYYWGQGTQVTVSS”, for which the “polyreactivity (PSR sort gate)” value is recorded as “high polyreactivity”.

Take “QVQPVESGGGLVQAGGSLRLSCAASGRIFGDYAMGWYRQAPGKERELVAAINCSGTSTNYADSVKGRFTISRDNAKYTVYLEMNSLKPEFTAVYYCNAEGTYRPEYDSWVQGTQVTVSS”: the “polyreactivity (PSR sort gate)” value is “low polyreactivity”. As for “QVQQQESGGGLVQAGGSLRLSCAASGTIFQLTVMGRYRQAPGKERELVASIDYGGNTNYADSVKGRFTISRDNAKKTVYLQKYIVKPEDTAVYYCAAYSDSWTTHPYWGQVTQVTVSS”, the “polyreactivity (PSR sort gate)” value is given as “low polyreactivity”.

For the sequence “QVQQQESGGGLVQAGGSLRLSCAASGTIFQLTVMGRYRQAPGKERELVASIDYGGNTNYADSVKGRFTISRDNAKNTVYLQMNRLKPEDTAVYYCSASSDSWTTHPYWGQGTQVTVSS”, the “polyreactivity (PSR sort gate)” value is “low polyreactivity”. With “QVQQQESGGGLVQAGGSLRLSCAASGTIFQLTVMGRYRQAPGKERELVASIDYGGNTNYADSVKGRFTISRDNAKYTVYLLMISLKPEDTAVYYCAASSVSWTTHPYWGQGTQVTVSS”, the “polyreactivity (PSR sort gate)” value is “low polyreactivity”.

Values taken from the nanobody polyreactivity screen of Harvey et al. (2022).
